For the test, the target named is Purified full-length LRRK2 (UniProt Q5S007). Nature of the test: mass photometry; LRRK2 at 150 nM or 200 nM incubated with constrained peptide 1:7.5 for 30 min at 30 °C; 10 uL added to 10 uL buffer (50 mM HEPES, 150 mM NaCl, 5 mM MgCl2, 1 mM DTT, 0.1 mM GDP, 1% glycerol); Refeyn TwoMP; percentage of dimer from molecular weight. The conditions noted are these: remark: other sources report otherwise.

As to “Purified full-length LRRK2, Q5S007 1-2527”, the stoichiometry N worked out at 2.

Usually stoichiometry N stands for a count of units in the complex or per binding partner.

The values above are taken from PMC10251477, “Doubly Constrained C-terminal of Roc (COR) Domain-Derived Peptides Inhibit Leucine-Rich Repeat Kinase 2 (LRRK2) Dimerization” (ACS Chemical Neuroscience, 2023).
